PMC11826994

What was measured:
[1] = molecular target: full-length histone H4 with the canonical Asp at position 24 (H4D24), semisynthetic (UniProt P62805)
[2] = molecular target: full-length histone H4 with L-isoaspartate at position 24 (H4isoD24), semisynthetic (UniProt P62805)

Row | Substance | k (1,obs), rate of H4K20 monomethylation by Set8 on 12-mer nucleosome arrays containing H4D24 (with Suv4-20h1 and AdoMet; HRMS) [1] [min^–1] | k (1,obs), rate of H4K20 monomethylation by Set8 on 12-mer nucleosome arrays containing H4isoD24 (with Suv4-20h1 and AdoMet; HRMS) [2] [min^–1] | k (2,obs), rate of H4K20me1 to H4K20me2 methylation by Suv4-20h1 on 12-mer nucleosome arrays containing H4D24 (with Set8 and AdoMet; HRMS) [1] [min^–1] | k (2,obs), rate of H4K20me1 to H4K20me2 methylation by Suv4-20h1 on 12-mer nucleosome arrays containing H4isoD24 (with Set8 and AdoMet; HRMS) [2] [min^–1]
1 | methyltransferase Set8 (from UniProt Q9NQR1 1-393) (enzyme) | 0.0059 | 0.0016 |  | 
2 | methyltransferase Suv4-20h1 (from UniProt Q4FZB7 1-885) (enzyme) |  |  | 0.033 | 0.002
